Test: soluble on expression in E. coli; label from the status in PepcDB or PDB records

Sequence | soluble on expression in E. coli
MSLTLKTTEDLFQQSLHEYTITHAIEDKNVLRFHVDYYKPDGKSTPKPGETLAKRAVVDAILSKHDAATGGRRFNAILATASINDAIGYFGLFKTAQAEKQRVEPGYVPLNIAAVFSPPSDVSADVRQLQEDLPQEQEDNKKDSDAKKAALKAIIGDYNTRFGTNHRIEEFDAYYQDVQQRIKDQQFPNADLPDKGREKLDIVIVVDMLLTGFDSKYLNTLYVDKNLKYHGLIQAFSRTNRVLNDTKPYGNILDFRGQQKEVDAAIALFSGAKADKAREIWLVDTAPVVIDKLKEARGSLDSFLASQGLGGKPEDIANLKGTAAKVAFIKHFKDVQKLQTQLDQYTDLTAEQQAQVEAILPKDELRSFRGQYLQKAEELRADQKKAGEGHHHHHH | soluble
MNNQSQVKVGPPLWLLAELTYDCPLHCPYCSNPTELGDTKDELNTEQWLDVLTQARAMGAVQLGFSGGEPLLRKDLEQMVKHSRELGFYTNLITSGIGLTEKRIAKLKVAGLDHIQISFQGADPEMNDIIAGRGNAFEQKFKMAQSVKAQGYPMVLNFVISKQNISQVEDIMRLSCQLNADYVELATAQYYGWAYDNRDHLLPSQQQLIDAEKIVNEFRDKQQGKGPQFIFVTPDYFEVRPKACMNGWGSTFLTIAPDGSALPCHSAKMLPLKFPNVKDKSISDIWQQDFSFNRFRGDSWMPQPCQSCDEKEKDFGGCRCQAFMMTGDMDKTDPVCSKSPDHHLIQEAIERAKHPKNPLLERVNKRSIKDADIVQIKL | not soluble
MGSDKIHHHHHHMQEMILLQQKVDETIRALGGYFRPLSGLARLIEEVGEVGEALETGDELSFQAELVDVLMISTCLANQYVTDLAQQHQQLGTMEDEGQGSFYRLVHEAGQVARVMNGYEGDKPPKQTEDIIPIGMSLARLQRELFRLVRPHGINLLQEIDRTNEKNLNRDRKRFALTRDPVTEATIDHFRSATGNTERLWGAPAYESDLALEAHIQAALPSLRRFLRCARIEGIAGFVIEAPMERTDSLRSVKDQADEIGRIVKEQTPLSFKEAPYRIDVYAPQLGPVSPYHAEDDHRMFLVLHVDE | not soluble
MSLKLGIIGSGKIVHDFLTAIDQINNLDVVAISSTKRSENIAQELAKKYSINKTYTDNDELMSDPDVDTVYVAVPNFLHYQVAKAALEHGKNVICEKPFVDSTNEAKKLKQLADEKNLIIVEAITNIYLENFKRIQREIENIAPIHIVSLNYTQYSSRYDDFLKGKIAPVFDPAKDGGTLMDLNIYNIHLVSALFGLPDKVKYYANMQKGVDTSGILHLSYPDKQAALIAAKDSYVTPRSFIEGEKGSIYIDGSTGELNNFTIEMRDQKPKRYNLNKYSHRMASEFNAFVEMIDNHDKVKADEAFVNTLESMQILTTAKNSEEGHHHHHH | soluble
MGSDKIHHHHHHMLSRTAENLFWLARYVERAEYLARTIEATLRVTALPSAYIGKTNEWDSALLTAGVGGNFYNFHDEANEQSVVDYLAFSSDNPSSIRNCIENARLNARSVRTALTGEMWDTLNSAWIELQEAWGKGTKTREDLTRFLRFVQEISLRFDGSAYRTMLRNDAYWFSRLGLHLERADNTARILDVKYHVLLPEEEHVGGPLDYYQWSSILRSVSALTAYHWVYRETLKPWLIADLLILNDTLPRSLASCYGNLTRNLDNIGVAYGRHGAAQRHARGVRNRLEHSKMDDIFQRGVHEFIQEFIADNARLGEVIAKQYLI | not soluble
MASQADAQELAALRALSASIGLNPHMTQAAGGNTSLKAGDTLWIKASGTWLKDALSDDIMVPVAMAPLLEAVEEGDPAADKPQAFAINELNPRGLRPSIETTVHALMPQRVVLHVHCVDTISLAVQADGEAEVARRLGGIEWAYVPYCRPGLPLARGISEKLRPNVDVLILGNHGLVVAADTVAEAQRLLHRVRSLLARPARATAAPDIAALTALAADSAYRLPADLEAHAVALDPQSRRMAEAGSLYPDHVIFLGQGSVVAKPGENAAGVATRLGAAPVAILFPGAGVLVRGDASAGADAMQRCLADVTARVDVAARLNYLTAAENDELVNWDAEQYRQKLNATGGLEHHHHHH | not soluble
MEGIDMLDIKLIRENPELVKNDLIKRGELEKVKWVDEILKLDTEWRTKLKEINRLRHERNKIAVEIGKRRKKGEPVDELLAKSREIVKRIGELENEVEELKKKIDYYLWRLPNITHPSVPVGKDENDNVPIRFWGKARVWKGHLERFLEQSQGKMEYEILEWKPKLHVDLLEILGGADFARAAKVSGSRFYYLLNEIVILDLALIRFALDRLIEKGFTPVIPPYMVRRFVEEGSTSFEDFEDVIYKVEDEDLYLIPTAEHPLAGMHANEILDGKDLPLLYVGVSPCFRKEAGTAGKDTKGIFRVHQFHKVEQFVYSRPEESWEWHEKIIRNAEELFQELEIPYRVVNICTGDLGYVAAKKYDIEAWMPGQGKFREVVSASNCTDWQARRLNIRFRDRTDEKPRYVHTLNSTAIATSRAIVAILENHQEEDGTVRIPKVLWKYTGFKEIVPVEKKERCCAT | soluble
MITQNIESLNNIAKIQHAANTDYLTDLANRRAFFRSAESRIKEYINKKVPYCLAMIDVDFFKKVNDTYGHDSGDQVLKVIALYMRKHFGAGLTARLGGEEFAVLLHGLDADYLHNKLDDFRREIAVSSIPAGDTSISITLSLGVVFDSEDELSKQMNEADNALYAAKENGRNQIVVFGAELDDLEHHHHHH | soluble
MSLDDQITNAAEKGVTDRFYGLIPNGYLFIENGLISAFGPMSALQENLTNSTAMSQIDDAIDAAGRLLTPALIDCHTHVVYGGHRALEFEMRLKGASYAEMAKAGGGIVSTVSATRSQSVEQLVQGALARVDALIAEGISLIEIKSGYGLDIETELRMLRAARSIEAARPVRVITSFLGAHAMPPGEDMSPEGYIEKTCIPALHQAHKEGLVDAVDGFCESIAFSADQIVPLFNVAAELGLPVKLHAEQLTRCGGSLLAASHKALSVDHVEYANKEDVRALAAAGCSAVLLPGAFYTLRETQKPPVALFRDQGVPMAIATDANPGSSPMTSLLLAMNMGCTLFGMTPYEALAGVTRNAARALGVSDSGMLRPGLRADLALWDVAHPAELAYRIGFNPLHRRIFGGQIAEGHHHHHH | soluble
GTENLYFQGMSDVIEGRLKELGFTLPVAAAPAANYVPFTISGNLLYVSGQLPMESGKIAVTGLVGRDVDVASAQRAAELCAVNILAQVKAALNGDLSKIRRVIKLNGFVASVPEFVEQHLVINGASNLIATVLGEPGRHARAAVGMASLPFNASVEIDAIVEIDV | soluble
MGSDKIHHHHHHMQWLTFQWLEFIREYREKAKHNLSNSGMPEPDLKSLGIDTSYEHYLDAAGEVEYRFTEALSRRLRVDQDLIIPTVGGTEAIFIALSHLSSVSKRIHVPLPEYEPMFLVPESLGIETSKIESKVMPGRISKNESIAMTLPNNPTAQYSDRISLLDNVIHSEGLIYIDETFRDFLPSGTRPTLFDGSETMVVSGTMTKFYGLSNLRTGWIISSEHNVAGMRRIKDLTSINNASFSLYIAAQAIQKWNYFKEAEDNLINKNLRVAREYLEGLPGISYKEPEGAPFIFLSYSKNIESVKLAKLAVERYGILFAPGSFFGEEHHIRVCLTSNKPEEDFNVLKEFLKKEAV | not soluble
PDAARKAQILWCQPDRAKAWTDWMRKGKFPVGGSICDNPVAETTSLGEQFGFNGTPTLVFPNGRSQSGYSPMPQLEEIIRKNQ | not soluble
MGSDKIHHHHHHMRALLSGYYGKGNGGDEALLATLLQMLPSHVTPVVLSGNPEETSDRYGVESHNRMSLTSVLPALRSCDAFIWGGGSLIQDVTSSISPFYYGGLMALAQKMGLKTVAWAQGIGPLVRPQTRWLAQHNFSGCTTVSVRDRVSAALLADWQIPYILAPDPVWALQAKPFPELANLPTPRIAVTLRNHPQLTAPRLANLTQALVSLQKSTQAFILLLPFQKSEDLAIAQAIQPQLKDVSEIVCIEDPQILKGVFRGVEMAIGMRLHSLIMAASEGCRCFALSYDPKINRLMEDLAIPGWDLANLPDNANVISKTWIDFYTNAQPLASEKITTLVEGAFMHRELLRKALGRIN | not soluble
LVLQLQINRNPVLFDFNLQLKTNNFANQTSFDELFNEKTNPLNWQFFSKLKVNHLVYEGNDITQLANTLLQSQFNVLQLDLNKSIYRLNLNAMAQRFEHDWVQPLYAKRTQAKIAY | not soluble
SGCGGSRADAIEPRYYESWTRETESTWLTYTDSDAPPSAAAPDSGPEAGGLHSGMLEDGLPSNGVPRSTAPGGIPNPEKKTNCETQCPNPQSLSSGPLTQKQNGLQTTEAKRDAKRMPAKEVTINVTDSIQQMDRSRRITKNCVN | soluble
MSLSNYISIKGAKVNNLKNIDVNIPRNKLVVITGLSGSGKSSLAFDTLYAEGQRRYVESLSSYARQFLGRMSKPECDFIKGIPPAIAIEQKVNSRNPRSTVGTSTEIYEYLRLLYARVGKTYSPISGQLVKKHSIEDIVNCMLSFPKGTKYTVLTPMMPREGRTLLQQLEMDLKQGFTRIEVNREIVRIEDFLQQTAAEDKKQNIYLLVDRMTADDSKDSISRLTDSAETAMYEGDGNCLLRFYSADGSTQLFSFSTKFETDGIKFEEPNDQMFSFNSPLGACPECEGFGKVIGIDEHLVIPNRALSVYDGAVLCWRGEKMGEWLQEFIHEAPAHDFPIFAPYYELTQEQKDYLWHGPRNKACIDSFFKMLEENQYKIQYRVMLARYRGKTICPVCHGTRLKKEAGYVKVGGKSISQLVDLPIHDLKEFFRTLELDAHDTAIAKRILTEITNRINFLMDVGLGYLTLNRLSNSLSGGESQRINLATSLGSSLVGSLYILDEPSIGLHSRDTDRLIKVLRQLQELGNTVVVVEHDEEIIRAADYIIDIGPQAGRLGGQIVYQGNMNDLQRNSNSYTVRYLLGEEGHHHHHH | not soluble
MHNNENVSGISAYLLGLIIGDGGLYKLKYKGNRSEYRVVITQKSENLIKQHIAPLMQFLIDELNVKSKIQIVKGDTRYELRVSSKKLYYYFANMLERIRLFNMREQIAFIKGLYVAEGDKTLKRLRIWNKNKALLEIVSRWLNNLGVRNTIHLDDHRHGVYVLNISLRDRIKFVHTILSSHLNPLPPE | soluble
MSLSSTFSARGPLLTAAVLLVGLLAGCASSQSATAPSPDDSGQAQSPAQNETGENGLKPFGDVVPDTARTDPGLLTTHRFDGKLYVEIPDSLIGRELLMVSRAAQTPDGFGYGGEKTATQVLRWQRRGDQLYLRVVSHEDMAQEDDPVYQAVQNSNLEPIIQSFSIEALNEDSTGVVAEVTDLFTSDVPSLGIPSAAREEYRVRRLDGDRTYIKGVESFPENTDIEAVLTYQAENPPSNASTKTLTVSMNHSMVLLPKEPMQPRLCDDRVGYFSVERVNYSSDEQRATEACFITRWKLEPKDPEAYARGELVEPKEPIVYYIDPATPKKWRPYLKQGVEAWQSTFREAGFKNAIIAKDPPSAEEDSTFDPDDIRYSTIRYFASEVQNAYGPHVHDPRSGEILESDIGWYHNVMNLLRNWYFVQTAAVNPEARKPVFSTEVMGKLVRFVAAHEVGHTLGLPHNMGSSNAVPVDSLRSPSYTADHGTAPSIMDYARFNYVAQPGDGVENFLPRIGTYDEWAVRWGYTKRPTGSPEEQAQTLDEMILEHTDDPRYFFGASGSIDPRSQSEDLGRDAMEASRLGIANLKRILPNLIQWTSRDGEGYATLEELYGAVVNQWRRYMGHVSQHLGGVHETPKTYGQEGPVYEPVSATDQERAVDFLLTHAFETPTWMVEADVLRRIEHAGALERVREAQVGVLDGVLDPERMARMLEAEAMSEDDVYGVGDLFGDLRGGVWAELESGSVIDPYRRNLQRGYLERLDYLMTAEVEAPPPEYQQYIDYTPVDVSQSDIRPYVRAELKTLRDDVQQGLRRTTDETTEMHLQDVLARIDQTLNGTEGHHHHHH | not soluble
MWRSSLMCLPDTSWGAMETTFVLDALEQALWARRPSGTVHHSDKGSQYVSLAYTQRLKEAGLLASTGSTGDSYDNAMAESINGLYKAEVIHRKSWKNRAEVELATLTWVDWYNNRRLLERLGHTPPAEAEKAYYASIGNDDLAA | not soluble

Reference: the DeepSol protein solubility set
